Patent USRE48267E1, “Variants of C-type natriuretic peptide” (priority 2009, dated 2020)
Where a SMILES comes first, the peptide text is derived from it. Bridges are numbered along the chain shown (N, C = ends). Where no end group is shown, it is not given here. [ ]: non-standard residue; d: D form. The star is where a group is joined. CH3O(CH2CH2O)11CH2CH2CO = COCCOCCOCCOCCOCCOCCOCCOCCOCCOCCOCCOCCC(=O)*; PEO12 = PEO12, 0.6 kDa, monodispersed; PEO24 = PEO24, 1.2 kDa, monodispersed; PEG2K = PEG2K (polydispersed); Tle = CC(C)(C)[C@H](N)C(=O)O; PEG1K = polydispersed PEG1K

T1: NPR-B (natriuretic peptide receptor B), murine, expressed endogenously on NIH3T3 cells (murine, UniProt Q6VVW5 17-1047)
T1 sequence (looked up): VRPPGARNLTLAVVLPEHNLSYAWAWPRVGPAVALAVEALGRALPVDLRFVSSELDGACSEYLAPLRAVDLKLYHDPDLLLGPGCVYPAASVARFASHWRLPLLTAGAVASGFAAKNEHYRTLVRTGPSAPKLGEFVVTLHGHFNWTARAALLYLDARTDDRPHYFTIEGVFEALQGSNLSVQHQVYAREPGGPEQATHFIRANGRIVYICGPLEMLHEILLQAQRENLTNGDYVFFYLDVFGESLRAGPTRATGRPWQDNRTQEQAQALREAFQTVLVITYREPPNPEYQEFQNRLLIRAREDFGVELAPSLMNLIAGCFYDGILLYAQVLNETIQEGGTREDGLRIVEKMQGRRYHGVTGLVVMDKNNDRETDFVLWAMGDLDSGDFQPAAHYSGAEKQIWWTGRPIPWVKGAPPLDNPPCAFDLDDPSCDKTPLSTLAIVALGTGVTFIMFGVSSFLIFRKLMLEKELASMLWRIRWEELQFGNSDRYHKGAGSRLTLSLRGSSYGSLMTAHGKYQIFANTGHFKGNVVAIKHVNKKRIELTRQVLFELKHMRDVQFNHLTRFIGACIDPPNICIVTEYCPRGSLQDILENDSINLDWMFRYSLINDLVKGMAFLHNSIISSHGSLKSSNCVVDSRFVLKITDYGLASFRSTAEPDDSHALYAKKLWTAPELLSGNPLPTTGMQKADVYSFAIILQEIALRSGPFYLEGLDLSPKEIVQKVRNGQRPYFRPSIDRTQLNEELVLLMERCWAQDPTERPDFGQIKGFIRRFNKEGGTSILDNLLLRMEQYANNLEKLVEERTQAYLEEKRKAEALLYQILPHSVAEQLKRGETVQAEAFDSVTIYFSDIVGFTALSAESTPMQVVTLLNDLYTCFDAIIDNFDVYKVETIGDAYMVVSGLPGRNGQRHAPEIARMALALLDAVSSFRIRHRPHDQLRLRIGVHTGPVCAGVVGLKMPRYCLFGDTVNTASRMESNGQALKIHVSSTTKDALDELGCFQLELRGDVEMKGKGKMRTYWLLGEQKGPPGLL


What follows are molecules tested against T1, NPR-B (natriuretic peptide receptor B), … (assay: cell-based or functional assay). Settings: not given.

| Molecule | cGMP response rel. to 1 uM CNP22; 10 nM peptide, NIH3T3 cells | cGMP response rel. to 1 uM CNP22; 1 uM peptide, NIH3T3 cells |
| --- | --- | --- |
| PEG2K-GANRRGLSRGCFGLKLDRIGSMSGLGC (ends and bridges not checked) [PEG2K-GANRR-CNP22, K4R] | 15 rel. to 1 uM CNP22 (100) | 45 rel. to 1 uM CNP22 (100) |
| PEO24-GANSSGLSRGCFGLKLDRIGSMSGLGC (ends and bridges not checked) [PEO24-GANSS-CNP22, K4R] | 8 rel. to 1 uM CNP22 (100) | 46 rel. to 1 uM CNP22 (100) |
| PEO24-GANQQGLSRGCFGLKLDRIGSMSGLGC (ends and bridges not checked) [PEO24-GANQQ-CNP22, K4R] | 16 rel. to 1 uM CNP22 (100) | 73 rel. to 1 uM CNP22 (100) |
| PEO24-RGLSRGCFGLKLDRIGSMSGLGC (ends and bridges not checked) [PEO24-R-CNP22, K4R] | 15 rel. to 1 uM CNP22 (100) | 75 rel. to 1 uM CNP22 (100) |
| PEO12-GANRRGLSRGCFGLKLDRIGSMSGLGC (ends and bridges not checked) [PEO12-GANRR-CNP22(K4R)] | 40 rel. to 1 uM CNP22 (100) | 99 rel. to 1 uM CNP22 (100) |
| PEG2K-CFGLKLDRIGSMSGLGC (ends and bridges not checked) [PEG2K-CNP17] | 5 rel. to 1 uM CNP22 (100) | 50 rel. to 1 uM CNP22 (100) |
| PEO24-GANRRGLSRGCFGLKLDRIGSMSGLGC (ends and bridges not checked) [PEO24-GANRR-CNP22(K4R)] | 28 rel. to 1 uM CNP22 (100) | 82 rel. to 1 uM CNP22 (100) |
| PEO24-GLSRGCFGLKLDRIGSMSGLGC (ends and bridges not checked) [PEO24-CNP22, K4R] | 15 rel. to 1 uM CNP22 (100) | 56 rel. to 1 uM CNP22 (100) |
| PEO12-ERGLSRGCFGLKLDRIGSMSGLGC (ends and bridges not checked) [PEO12-ER-CNP22, K4R] | 20 rel. to 1 uM CNP22 (100) | 92 rel. to 1 uM CNP22 (100) |
| PEO12-GANSSGLSRGCFGLKLDRIGSMSGLGC (ends and bridges not checked) [PEO12-GANSS-CNP22, K4R] | 8 rel. to 1 uM CNP22 (100) | 52 rel. to 1 uM CNP22 (100) |
| PEO24-ERGLSRGCFGLKLDRIGSMSGLGC (ends and bridges not checked) [PEO24-ER-CNP22, K4R] | 6 rel. to 1 uM CNP22 (100) | 60 rel. to 1 uM CNP22 (100) |
| PEG1K-GANRRGLSRGCFGLKLDRIGSMSGLGC (ends and bridges not checked) [PEG1K-GANRR-CNP22(K4R)] | 15 rel. to 1 uM CNP22 (100) | 56 rel. to 1 uM CNP22 (100) |
| PEO12-GANQQGLSRGCFGLKLDRIGSMSGLGC (ends and bridges not checked) [PEO12-GANQQ-CNP22, K4R] | 30 rel. to 1 uM CNP22 (100) | 78 rel. to 1 uM CNP22 (100) |
| PEO12-RGLSRGCFGLKLDRIGSMSGLGC (ends and bridges not checked) [PEO12-R-CNP22, K4R] | 23 rel. to 1 uM CNP22 (100) | 93 rel. to 1 uM CNP22 (100) |
| PEO12-GLSRGCFGLKLDRIGSMSGLGC (ends and bridges not checked) [PEO12-CNP22, K4R] | 13 rel. to 1 uM CNP22 (100) | 44 rel. to 1 uM CNP22 (100) |

These molecules were tested against Recombinant human NEP (Homo sapiens, UniProt P08473) (assay: in vitro NEP cleavage assay (disappearance of non-cleaved CNP variant)). Settings: not given.
Experimental: To determine the effects of amino acid substitutions, amino acid extensions, backbone modifications, side chain modifications and PEGylation on the susceptibility of CNP variants to neutral endopeptidase (NEP) cleavage, peptide cleavage assays were carried out using an in vitro assay that monitored disappearance of the non-cleaved CNP variant.
Recombinant human NEP (1 ug/mL final concentration) was added to 100 uM CNP variant diluted in 0.1 M Tris, pH 7. The reaction mixture was incubated at 37° C. for various periods of time, and the reaction was quenched with EDTA (10 mM final) followed by heat denaturation. The reaction mixture was reduced and then the reaction products were analyzed using HPLC and mass spectroscopy. The half-life of the CNP variant was calculated based on the disappearance of intact CNP variant over time.

Chain of Recombinant human NEP (P08473 whole entry): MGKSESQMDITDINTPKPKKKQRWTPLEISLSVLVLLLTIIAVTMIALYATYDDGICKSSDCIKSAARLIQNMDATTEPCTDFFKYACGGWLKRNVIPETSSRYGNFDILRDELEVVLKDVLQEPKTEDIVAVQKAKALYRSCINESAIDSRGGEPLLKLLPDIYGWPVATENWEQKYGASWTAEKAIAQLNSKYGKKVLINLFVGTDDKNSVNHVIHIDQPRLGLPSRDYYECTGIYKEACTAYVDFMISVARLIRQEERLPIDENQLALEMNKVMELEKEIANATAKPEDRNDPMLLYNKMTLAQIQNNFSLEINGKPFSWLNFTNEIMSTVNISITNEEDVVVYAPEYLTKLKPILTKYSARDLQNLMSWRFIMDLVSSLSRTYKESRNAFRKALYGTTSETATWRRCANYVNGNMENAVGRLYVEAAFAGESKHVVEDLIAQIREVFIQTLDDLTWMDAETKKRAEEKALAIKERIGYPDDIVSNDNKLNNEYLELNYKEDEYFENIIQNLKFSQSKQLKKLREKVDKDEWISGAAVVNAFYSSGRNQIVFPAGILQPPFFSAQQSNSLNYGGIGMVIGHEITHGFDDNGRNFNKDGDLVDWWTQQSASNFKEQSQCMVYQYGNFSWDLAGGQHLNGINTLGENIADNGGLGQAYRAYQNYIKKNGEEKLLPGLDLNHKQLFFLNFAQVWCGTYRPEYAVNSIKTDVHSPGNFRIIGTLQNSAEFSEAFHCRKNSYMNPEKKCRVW

| Molecule | resistance to NEP cleavage (in words) | resistance to cleavage at the Cys6-Phe7 bond relative to wtCNP22 |
| --- | --- | --- |
| CC[C@H](C)[C@@H]1NC(=O)[C@H](CCCNC(=N)N)NC(=O)[C@H](CC(=O)O)NC(=O)[C@H](CC(C)C)NC(=O)[C@H](CCCCN)NC(=O)[C@H](CC(C)C)NC(=O)CNC(=O)[C@H](Cc2ccccc2)NC(=O)[C@@H](NC(=O)CNC(=O)[C@H](CCCNC(=N)N)NC(=O)[C@H](CO)NC(=O)[C@H](CC(C)C)NC(=O)CNC(=O)[C@H](CCCNC(=N)N)NC(=O)[C@@H]2CCCN2C(=O)[C@H](CC(N)=O)NC(=O)[C@H](C)NC(=O)CNC(=O)CCOCCOCCOCCOCCOCCOCCOCCOCCOCCOCCOCCOC)CSSC[C@@H](C(=O)O)NC(=O)CNC(=O)[C@H](CC(C)C)NC(=O)CNC(=O)[C@H](CO)NC(=O)[C@H](CCSC)NC(=O)[C@H](CO)NC(=O)CNC1=O [PEO12-GANPR-CNP22(K4R)] ({CH3O(CH2CH2O)11CH2CH2CO}-GANPRGLSRGCFGLKLDRIGSMSGLGC-OH; disulfide 11-27; C-terminus assumed) | same half-life as wtCNP22 | – |
| CC[C@H](C)[C@@H]1NC(=O)[C@H](CCCNC(=N)N)NC(=O)[C@H](CC(=O)O)NC(=O)[C@H](CC(C)C)NC(=O)[C@H](CCCCN)NC(=O)[C@H](CC(C)C)NC(=O)CNC(=O)[C@H](Cc2ccccc2)NC(=O)[C@@H](NC(=O)CNC(=O)[C@H](CCCCN)NC(=O)[C@H](CO)NC(=O)[C@H](CC(C)C)NC(=O)CNC(=O)CCOCCOCCOCCOCCOCCOCCOCCOCCOCCOCCOCCOCCOCCOCCOCCOCCOCCOCCOCCOCCOCCOCCOCCOC)CSSC[C@@H](C(=O)O)NC(=O)CNC(=O)[C@H](CC(C)C)NC(=O)CNC(=O)[C@H](CO)NC(=O)[C@H](CCSC)NC(=O)[C@H](CO)NC(=O)CNC1=O [PEO24-CNP22] | resistant to NEP degradation over the assay period of 160 minutes | – |
| DLRVDTKSRAAWARLLQEHPNARKYKGANKKGLSKGCFGLKLDRIGSMSGLGC (disulfide 37-53) [Analog BM, reference compound] | resistant to NEP degradation | – |
| PEG2K-CNP22(K4G): CNP22 having a K4G substitution, N-terminal PEGylated with PEG2K (PEG2K-GLSGGCFGLKLDRIGSMSGLGC; not fully specified (bridges); ends and bridges not checked; UniProt P23582 105-126, looked up, variant K4G) | only slightly more resistant to NEP cleavage than CNP22 | – |
| CC[C@H](C)[C@@H]1NC(=O)[C@H](CCCNC(=N)N)NC(=O)[C@H](CC(=O)O)NC(=O)[C@H](CC(C)C)NC(=O)[C@H](CCCCN)NC(=O)[C@H](CC(C)C)NC(=O)[C@H](C(C)(C)C)NC(=O)[C@H](Cc2ccccc2)NC(=O)[C@@H](NC(=O)CNC(=O)[C@H](CCCCN)NC(=O)[C@H](CO)NC(=O)[C@H](CC(C)C)NC(=O)CN)CSSC[C@@H](C(=O)O)NC(=O)CNC(=O)[C@H](CC(C)C)NC(=O)CNC(=O)[C@H](CO)NC(=O)[C@H](CCSC)NC(=O)[C@H](CO)NC(=O)CNC1=O [Analog F] (H-GLSKGCF[Tle]LKLDRIGSMSGLGC-OH; disulfide 6-22) | – | resistance or improved resistance |

Same assay, conditions: 100 uM peptide, 1 ug/mL NEP, 0.1 M Tris pH 7, 37° C.; adjusted t1/2, CNP22 normalized to 80 min

| Molecule | NEP Cleavage (t1/2, min) |
| --- | --- |
| CC[C@H](C)[C@@H]1NC(=O)[C@H](CCCNC(=N)N)NC(=O)[C@H](CC(=O)O)NC(=O)[C@H](CC(C)C)NC(=O)[C@H](CCCCN)NC(=O)[C@H](CC(C)C)NC(=O)CNC(=O)[C@H](Cc2ccccc2)NC(=O)[C@@H](NC(=O)CNC(=O)[C@H](CCCCN)NC(=O)[C@H](CO)NC(=O)[C@H](CC(C)C)NC(=O)CNC(=O)CCOCCOCCOCCOCCOCCOCCOCCOCCOCCOCCOCCOCCOCCOCCOCCOCCOCCOCCOCCOCCOCCOCCOCCOC)CSSC[C@@H](C(=O)O)NC(=O)CNC(=O)[C@H](CC(C)C)NC(=O)CNC(=O)[C@H](CO)NC(=O)[C@H](CCSC)NC(=O)[C@H](CO)NC(=O)CNC1=O [PEO24-CNP22] | >>160 min |

Same assay, conditions: pH 7

| Molecule | NEP Cleavage (t1/2, min) |
| --- | --- |
| PEG1K-GANRR-CNP22(K4R): GANRR-CNP22, K4R (SEQ ID NO: 36) conjugated at the N-terminus to PEG1K (PEG1K-GANRRGLSRGCFGLKLDRIGSMSGLGC; not fully specified (bridges); ends and bridges not checked) | >160 min |
| PEG20K-CNP22: CNP22 conjugated at the N-terminus to polydispersed PEG20K | >>160 min |
| PEG1K-CNP22: CNP22 conjugated at the N-terminus to polydispersed PEG1K | >160 min |
| PEG2K-CNP22: CNP22 conjugated at the N-terminus to polydispersed PEG2K | >>160 min |
